According to patent publication US20250353917A1 (SYSTIMMUNE, published 2025):

Assays:
EGFR on BxPC-3 cells [1] = molecular target: T1, EGFR on BxPC-3 cells (UniProt P00533 25-1210, limits assumed); assay: cell-based or functional assay
EGFR on BxPC-3 cells [2] = molecular target: T1, EGFR on BxPC-3 cells; assay: cell-based or functional assay; remark: listed apart in the source
[3] = molecular target: T2, soluble recombinant extracellular domain of human EGFR (human, UniProt P00533 25-645); assay: BLI (Octet), scFv-monoFc on AHC sensors, serial dilutions of EGFR extracellular domain;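 note: EGFR analyte titrated 0 to 200 nM, association 180–300 s then dissociation 300–600 s in PBS with 0.1% BSA and 0.05% Tween20, global 1:1 fit, duplicate means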
T2 construct: extracellular domain
Protocol: (§1) Fc-containing protein was captured to anti-human Fc (AHC) sensor tips by loading for 180 seconds at 10 μg/ml. Alternatively, His-tagged proteins were covalently coupled at 10 ug/ml to AR2G tips using manufacturer protocol. After a 60-second baseline step, a 180- to 300-second association phase with serial dilutions (0-200 nM; 1:2.5 dilution factor) or a single 100 nM concentration of purified human EGFR in assay buffer (phosphate-buffered saline containing 0.1% BSA, 0.05% Tween20) was performed, followed by a 300- to 600—second dissociation phase in assay buffer. Regeneration was achieved using 10 mM glycine, pH 1.5. Binding curves were globally fit to a 1:1 model to extract the dissociation constants, KD. Binding kinetics for each protein were assessed in duplicate, with tabulated values reported as average±standard deviation.
(§2) The monoFc domain was used to load proteins onto anti-human Fc (AHC) sensors, followed by binding of scFv to serial dilutions of the extracellular domain of human EGFR.

[4] = molecular target: T2, soluble recombinant extracellular …; assay: BLI of scFv-monoFc proteins, against wild-type cetuximab scFv-monoFc
Protocol: as §1, §2

[5] = molecular target: T2, soluble recombinant extracellular …; assay: BLI (Octet), mAb on AHC sensors, soluble EGFR extracellular domain
Protocol: as §1

| Binder | TDCC EC50 (pM) (EGFR on BxPC-3 cells [2]) | Kd [3] | koff [3] | kon [3] | fold decrease in binding affinity [4] | other results |
| --- | --- | --- | --- | --- | --- | --- |
| SI-79X3 (bispecific antibody, human IgG1, kappa) heavy 1: QVQLQQSGPGLVKPSETLSITCTVSGFSLTNYGVHWIRQAPGKGLEWLGVIWSGGNTDYNTPFTSRFTITKDNSKNQVYFKLRSVRADDTAIYYCARALTYYDYEFAYWGQGTLVTVSSASTKGPSVFPLAPSSKSTSGGTAALGCLVKDYFPEPVTVSWNSGALTSGVHTFPAVLQSSGLYSLSSVVTVPSSSLGTQTYICNVNHKPSNTKVDKRVEPKSCDKTHTCPPCPAPEAAGAPSVFLFPPKPKDTLMISRTPEVTCVVVDVSHEDPEVKFNWYVDGVEVHNAKTKPREEQYNSTYRVVSVLTVLHQDWLNGKEYKCAVSNKALPAPIEKTISKAKGQPREPQVYTLPPSRDELTKNQVSLTCLVKGFYPSDIAVEWESNGQPENNYKTTPPVLDSDGSFFLYSRLTVDKSRWQQGNVFSCSVMHEALHNHYTQKSLSLSPG heavy 2: not shown light 1: EIVLTQSPSTLSVSPGERATFSCRASQSIGTNIHWYQQKPGKPPRLLIKYASESISGIPDRFSGSGSGTEFTLTISSVQSEDFAVYYCQQNNNWPTTFGPGTKLTVLRTVAAPSVFIFPPSDEQLKSGTASVVCLLNNFYPREAKVQWKVDNALQSGNSQESVTEQDSKDSTYSLSSTLTLSKADYEKHKVYACEVTHQGLSSPVTKSFNRGEC light 2: not shown | – | – | – | – | – | *EC50 (pM), TDCC, depletion of luciferized BxPC3 cells with activated T cells (EGFR on BxPC-3 cells [1]): 20.3 pM |
| SI-68P13 (other) heavy: EIVLTQSPSTLSVSPGERATFSCRASQSIGTNIHWYQQKPGKPPRLLIKYASESISGIPDRFSGSGSGTEFTLTISSVQSEDFAVYYCQQNNNWPTTFGPGTKLTVLGGGGSGGGGSGGGGSGGGGSQVQLQQSGPGLVKPSETLSITCTVSGFSLTNYGVHWIRQAPGKGLEWLGVIWSGGNTDYNTPFTSRFTITKDNSKNQVYFKLRSVRADDTAIYYCARALTYYDYEFAYWGQGTLVTVSSGGGGSGGGGSEVQLVESGGGLVQPGGSLRLSCAASGFTISTNAMSWVRQAPGKGLEWIGVITGRDITYYASWAKGRFTISRDNSKNTLYLQMNSLRAEDTAVYYCARDGGSSAITSNNIWGQGTLVTVSSASTKGPSVFPLAPSSKSTSGGTAALGCLVKDYFPEPVTVSWNSGALTSGVHTFPAVLQSSGLYSLSSVVTVPSSSLGTQTYICNVNHKPSNTKVDKRVEPKSCDKTHTCPPCPAPEAAGGPSVFLFPPKPKDTLMISRTPEVTCVVVDVSHEDPEVKFNWYVDGVEVHNAKTKPREEQYNSTYRVVSVLTVLHQDWLNGKEYKCAVSNKALPAPIEKTISKAKGQPREPQVYTLPPSRDELTKNQVSLSCAVKGFYPSDIAVEWESNGQPENNYKTTPPVLDSDGSFFLVSKLTVDKSRWQQGNVFSCSVMHEALHNHYTQKSLSLSPGGGGGSGGGGSDVVMTQSPSSVSASVGDRVTITCQASQNIRTYLSWYQQKPGKAPKLLIYAAANLASGVPSRFSGSGSGTDFTLTISDLEPGDAATYYCQSTYLGTDYVGGAFGGGTKLTVLGGGGSGGGGSGGGGSGGGGSEVQLVESGGGLVQPGGSLRLSCTASGFTISSYHMQWVRQAPGKGLEYIGTISSGGNVYYASSARGRFTISRPSSKNTVDLQMNSLRAEDTAVYYCARDSGYSDPMWGQGTLVTVSS light: ENVLTQSPASLSASPGERVTITCSASSSVSYMHWYQQKPGQAPKLWIYDTSKLASGVPSRFSGSGSGNDHTLTISSMEPEDFATYYCFQGSVYPFTFGQGTKVTVLGGGGSGGGGSGGGGSGGGGSQVTLKESGPGLVQPGQTLSLTCAFSGFSLSTSGMGVGWIRQPPGKGLEWLAHIWWDDDKRYNPALKSRLTISKDTSKNQVYLQMNSLDAEDTAVYYCARMELWSYYFDYWGQGTLVTVSSGGGGSGGGGSDVVMTQSPSTLSASVGDRVTINCQASESISSWLAWYQQKPGKAPKLLIYEASKLASGVPSRFSGSGSGTEFTLTISSLQPDDFATYYCQGYFYFISRTYVNSFGGGTKVEIKRTVAAPSVFIFPPSDEQLKSGTASVVCLLNNFYPREAKVQWKVDNALQSGNSQESVTEQDSKDSTYSLSSTLTLSKADYEKHKVYACEVTHQGLSSPVTKSFNRGECGGDKTHTCPPCPAPEAAGGPSVFLFPPKPKDTLMISRTPEVTCVVVDVSHEDPEVKFNWYVDGVEVHNAKTKPREEQYNSTYRVVSVLTVLHQDWLNGKEYKCAVSNKALPAPIEKTISKAKGQPREPQVYTLPPSRDELTKNQVSLWCLVKGFYPSDIAVEWESNGQPENNYKTTPPVLDSDGSFFLYSKLTVDKSRWQQGNVFSCSVMHEALHNRFTQKSLSLSPGGGGGSGGGGSDIQMTQSPSTLSASVGDRVTITCQASQSISSHLNWYQQKPGKAPKLLIYKASTLASGVPSRFSGSGSGTEFTLTISSLQPDDFATYYCQQGYSWGNVDNVFGGGTKVTVLGGGGSGGGGSGGGGSGGGGSEVQLLESGGGLVQPGGSLSLSCAASGFSFSSGYDMCWVRQAPGKGLEWIACIAAGSAGITYDANWAKGRFTISRDNSKNTLYLQMNSLRAEDTAVYYCARSAFSFDYAMDLWGQGTLVTVSS | 0.259 pM | – | – | – | – | – |
| SI-68P17 (other) heavy: DVVMTQSPSTLSASVGDRVTINCQASESISSWLAWYQQKPGKAPKLLIYEASKLASGVPSRFSGSGSGTEFTLTISSLQPDDFATYYCQGYFYFISRTYVNSFGGGTKVEIKGGGGSGGGGSGGGGSGGGGSEVQLVESGGGLVQPGGSLRLSCAASGFTISTNAMSWVRQAPGKGLEWIGVITGRDITYYASWAKGRFTISRDNSKNTLYLQMNSLRAEDTAVYYCARDGGSSAITSNNIWGQGTLVTVSSGGGGSGGGGSQVQLQQSGPGLVKPSETLSITCTVSGFSLTNYGVHWIRQAPGKGLEWLGVIWSGGNTDYNTPFTSRFTITKDNSKNQVYFKLRSVRADDTAIYYCARALTYYDYEFAYWGQGTLVTVSSASTKGPSVFPLAPSSKSTSGGTAALGCLVKDYFPEPVTVSWNSGALTSGVHTFPAVLQSSGLYSLSSVVTVPSSSLGTQTYICNVNHKPSNTKVDKRVEPKSCDKTHTCPPCPAPEAAGGPSVFLFPPKPKDTLMISRTPEVTCVVVDVSHEDPEVKFNWYVDGVEVHNAKTKPREEQYNSTYRVVSVLTVLHQDWLNGKEYKCAVSNKALPAPIEKTISKAKGQPREPQVYTLPPSRDELTKNQVSLSCAVKGFYPSDIAVEWESNGQPENNYKTTPPVLDSDGSFFLVSKLTVDKSRWQQGNVFSCSVMHEALHNHYTQKSLSLSPGGGGGSGGGGSDVVMTQSPSSVSASVGDRVTITCQASQNIRTYLSWYQQKPGKAPKLLIYAAANLASGVPSRFSGSGSGTDFTLTISDLEPGDAATYYCQSTYLGTDYVGGAFGGGTKLTVLGGGGSGGGGSGGGGSGGGGSEVQLVESGGGLVQPGGSLRLSCTASGFTISSYHMQWVRQAPGKGLEYIGTISSGGNVYYASSARGRFTISRPSSKNTVDLQMNSLRAEDTAVYYCARDSGYSDPMWGQGTLVTVSS light: ENVLTQSPASLSASPGERVTITCSASSSVSYMHWYQQKPGQAPKLWIYDTSKLASGVPSRFSGSGSGNDHTLTISSMEPEDFATYYCFQGSVYPFTFGQGTKVTVLGGGGSGGGGSGGGGSGGGGSQVTLKESGPGLVQPGQTLSLTCAFSGFSLSTSGMGVGWIRQPPGKGLEWLAHIWWDDDKRYNPALKSRLTISKDTSKNQVYLQMNSLDAEDTAVYYCARMELWSYYFDYWGQGTLVTVSSGGGGSGGGGSEIVLTQSPSTLSVSPGERATFSCRASQSIGTNIHWYQQKPGKPPRLLIKYASESISGIPDRFSGSGSGTEFTLTISSVQSEDFAVYYCQQNNNWPTTFGPGTKLTVLRTVAAPSVFIFPPSDEQLKSGTASVVCLLNNFYPREAKVQWKVDNALQSGNSQESVTEQDSKDSTYSLSSTLTLSKADYEKHKVYACEVTHQGLSSPVTKSFNRGECGGDKTHTCPPCPAPEAAGGPSVFLFPPKPKDTLMISRTPEVTCVVVDVSHEDPEVKFNWYVDGVEVHNAKTKPREEQYNSTYRVVSVLTVLHQDWLNGKEYKCAVSNKALPAPIEKTISKAKGQPREPQVYTLPPSRDELTKNQVSLWCLVKGFYPSDIAVEWESNGQPENNYKTTPPVLDSDGSFFLYSKLTVDKSRWQQGNVFSCSVMHEALHNRFTQKSLSLSPGGGGGSGGGGSDIQMTQSPSTLSASVGDRVTITCQASQSISSHLNWYQQKPGKAPKLLIYKASTLASGVPSRFSGSGSGTEFTLTISSLQPDDFATYYCQQGYSWGNVDNVFGGGTKVTVLGGGGSGGGGSGGGGSGGGGSEVQLLESGGGLVQPGGSLSLSCAASGFSFSSGYDMCWVRQAPGKGLEWIACIAAGSAGITYDANWAKGRFTISRDNSKNTLYLQMNSLRAEDTAVYYCARSAFSFDYAMDLWGQGTLVTVSS | 0.322 pM | – | – | – | – | – |
| SI-79SF5 (Fc fusion, also called H8; H8 scFv-monoFc) DIVLTQSPSSLSVSPGERVTISCRASQSIGTNIHWYQQKPGQAPRLLIKYASESISGIPSRFSGSGSGTDFTLTISSVESEDFAVYYCQQNNNWPTTFGQGTKLEIKGGGGSGGGGSGGGGSGGGGSQVQLVESGPGLVQPSGSLSLTCTVSGFSLTNYGVHWVRQAPGKGLEWVGVIWSGGNTDYNTPFTSRFTISKDNSKNQVYLKMNSLRAEDTAVYYCARALTYYDYEFAYWGQGTLVTVSSGSGGSPVAGPSVFLFPPKPKDTLMISRTPEVTCVVVDVSHEDPEVKFNWYVDGVEVHNAKTKPREEQYASTYRVVSVLTVLHQDWLNGKEYKCKVSNKALPAPIEKTISKAKGQPREPQVYTLPPSRDELTKNQVSLRCHVKGFYPSDIAVEWESNGQPENNYKTTKPVLDSDGSFFLYSTLTVDKSRWQQGNVFSCSVLHEALHNHYTQKSLSLSPGK | – | 6.79 nM | 0.00393 s⁻¹ | 571000 M⁻¹ s⁻¹ | 2 fold | – |
| SI-79SF7 (Fc fusion, also called H9; H9 scFv-monoFc) DIVLTQSPSSLSVSPGERVTISCRASQSIGTNIHWYQQKPGQAPRLLIKYASESISGIPSRFSGSGSGTDFTLTISSVESEDFAVYYCQQNNNWPTTFGQGTKLTVLGGGGSGGGGSGGGGSGGGGSQVQLVESGPGLVQPSGSLSLTCTVSGFSLTNYGVHWVRQAPGKGLEWVGVIWSGGNTDYNTPFTSRFTISKDNSKNQVYLKMNSLRAEDTAVYYCARALTYYDYEFAYWGQGTLVTVSSGSGGSPVAGPSVFLFPPKPKDTLMISRTPEVTCVVVDVSHEDPEVKFNWYVDGVEVHNAKTKPREEQYASTYRVVSVLTVLHQDWLNGKEYKCKVSNKALPAPIEKTISKAKGQPREPQVYTLPPSRDELTKNQVSLRCHVKGFYPSDIAVEWESNGQPENNYKTTKPVLDSDGSFFLYSTLTVDKSRWQQGNVFSCSVLHEALHNHYTQKSLSLSPGK | – | 6.92 nM | 0.00395 s⁻¹ | 563000 M⁻¹ s⁻¹ | 2 fold | – |
| SI-79C3 (antibody, human IgG1, kappa, V domains shown, Humanized version H7 in IgG format; also called H7; humanized H7 mAb) VH: QVQLQQSGPGLVKPSETLSITCTVSGFSLTNYGVHWIRQAPGKGLEWLGVIWSGGNTDYNTPFTSRFTITKDNSKNQVYFKLRSVRADDTAIYYCARALTYYDYEFAYWGQGTLVTVSS VL: EIVLTQSPSTLSVSPGERATFSCRASQSIGTNIHWYQQKPGKPPRLLIKYASESISGIPDRFSGSGSGTEFTLTISSVQSEDFAVYYCQQNNNWPTTFGPGTKLTVLR | – | – | – | – | – | Kd [5]: 2.41 nM; koff [5]: 0.000812 s⁻¹; kon [5]: 337000 M⁻¹ s⁻¹ |
